Reference: patent publication US20210317231A1 (BYONDIS B V, published 2021)
Residue numbers refer to the chain shown, from its start.

T1: cynomolgus monkey 5T4 antigen (cynomolgus monkey, UniProt Q4R8Y9 35-420)
T1 construct: whole, on cells; also called cyno 5T4
T1 sequence (looked up): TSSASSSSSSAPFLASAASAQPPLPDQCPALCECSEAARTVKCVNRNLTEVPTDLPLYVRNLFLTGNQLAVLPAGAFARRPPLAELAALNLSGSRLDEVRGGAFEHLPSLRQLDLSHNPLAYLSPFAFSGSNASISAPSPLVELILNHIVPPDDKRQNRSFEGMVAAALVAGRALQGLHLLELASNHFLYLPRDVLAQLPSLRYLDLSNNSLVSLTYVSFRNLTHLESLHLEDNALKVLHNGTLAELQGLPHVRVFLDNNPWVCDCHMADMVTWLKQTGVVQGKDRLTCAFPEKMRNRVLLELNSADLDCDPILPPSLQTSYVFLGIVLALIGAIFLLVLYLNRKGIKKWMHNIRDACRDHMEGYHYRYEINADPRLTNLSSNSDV

T2: human 5T4 oncofoetal antigen (human, UniProt Q13641 32-420)
T2 construct: whole, on cells; also called hu 5T4; human 5T4 antigen
T2 sequence (looked up): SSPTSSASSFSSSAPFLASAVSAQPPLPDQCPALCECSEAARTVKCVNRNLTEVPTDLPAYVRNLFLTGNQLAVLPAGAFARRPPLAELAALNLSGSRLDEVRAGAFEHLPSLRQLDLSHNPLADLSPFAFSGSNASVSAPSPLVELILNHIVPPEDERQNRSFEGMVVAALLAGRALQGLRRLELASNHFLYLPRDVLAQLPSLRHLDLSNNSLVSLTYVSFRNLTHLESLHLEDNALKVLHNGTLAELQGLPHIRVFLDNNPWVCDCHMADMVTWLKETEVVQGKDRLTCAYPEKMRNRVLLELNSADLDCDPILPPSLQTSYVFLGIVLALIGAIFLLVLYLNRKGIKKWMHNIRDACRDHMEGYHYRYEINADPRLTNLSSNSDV

B1: chimeric anti-5T4 monoclonal antibody 868 (antibody, human IgG1, V domains shown)
VH: QSVEESGGRLVTPGTPLTLTCTASGFSLSDYTMGWVRQAPGKGLEWIGIINGYGSTYYANWAKGRFAISKTSTTVDLKITSPATEDTATYFCARGDTGRTYDMHFNLWGQGTLVTVSS
VL: AYDMTQTPASVSAAVGGTVTIKCQASESIRSWLAWYQQKPGQPPKLLIYSASTLASGVSSRFKGSGSGTQFTLTIGDLESADAATYYCQQGYTSSNLDNAFGGGTEVLVK
B2: chimeric anti-5T4 monoclonal antibody 843 (antibody, human IgG1, V domains shown)
VH: QSLEESGGRLVTPGTPLTLTCTASGFSLNNAYMNWVRQAPGKGLEWIGIINTYGSTYFATWAKGRFTFSKTSTTVDLKITSPTTEDTATYFCARAYAPFSTYSHYYGMDLWGPGTLVTVSS
VL: DVVMTQTPSSVSAAVGGTVTIKCQASESIGSWLSWYQQKPGQPPKLLIYEASKLTSGVPSRFKGSGSGTEYTLTISDLESADAATYYCQYTDYGSNYLGTFGGGTEVVVK
B3: chimeric anti-5T4 monoclonal antibody 834 (antibody, human IgG1, V domains shown)
VH: QSVEESGGRLVTPGTPLTLTCTVSGFSLSTYSMSWVRQAPGKGLEWIGVISRGGSAYYASWAKGRFTISKTSTTVDLKVTSPTTEDTATYFCARGAISSGYYVYDGMDLWGPGTLVTVSS
VL: DIVMTQTPGSVEAAVGGTVTIKCQASESISSYLAWYQQKPGQPPKFLIYSASTLASGVPSRFKGSGSGTEFTLTISDLESADAATYYCQCTDYGSDYMGAFGGGTGVVVK
B4: chimeric anti-5T4 monoclonal antibody 825 (antibody, human IgG1, V domains shown)
VH: QSVEESGGRLVTPGTPLTLTCTVSGIDLSSYGMGWVRQAPGKGLEYIGIISRNSVTYYATWAKGRFTISKTSTTVDLKMTSPTTEDTATYFCARRATYSGALGYFDIWGPGTLVTVSF
VL: GYDMTQTPASVSAAVGGTVTINCQASENIYSTLAWYQQKPGQPPKVLIYDAFDLASGVPSRFKGSGSGTEYTLTISGVQSDDAATYYCQQGYSGTNVDNAFGGGTEVVVK
notes: also called clone 825
B5: chimeric anti-5T4 monoclonal antibody 835 (antibody, human IgG1, V domains shown)
VH: QSVEESGGRLVTPGTPLTLTCTVSGIDLSSGAMGWVRQAPGKGLEWIGLISSSPITYYANWARGRFTISKTSTTVDLKITSPTTADTATYFCARGYDDYGEIWFNIWGPGTLVTVSL
VL: AIEMTQSPPSLSASVGETVRIRCLAGEDIYSSISWYQQKPGKPPTLLIYGASNLESGVPPRFSGSGSGTDYTLTIGGVQAEDAATYYCLGGWSYSSSLTFGAGTKVEIK
B6: chimeric anti-5T4 monoclonal antibody 829 (antibody, human IgG1, V domains shown)
VH: QSLEESGGRLVTPGTPLTLTCTASGFSLSSYDMSWVRQAPGKGLEYIGWINSDDGAYYANWAKGRFTISRTSTTVDLKITSPTTEDTATYFCARDAGSTYLYGLDPWGPGTLVTVSS
VL: DVVMTQTPSSVSAGVGGTVTIKCQASQSISSYLAWYQQKPGQRPKLLIYAASTLASGVSSRFKGSGSGTEYTLTINDLESADAATYYCQCTYYGGTYNTFGGGTEVVVK
B7: chimeric anti-5T4 monoclonal antibody 899 (antibody, human IgG1, V domains shown)
VH: QSVEESGGRLVTPGTPLTLTCTVSGFSLSSYTMSWVRQAPGKGLEYIGIISSSDGTWYANWVKGRFTISKTSTTVDLKMTSLTTEDTATYFCARDGTGNKYYTWDRLDLWGQGTLVTVSS
VL: NIVMTQTPSPVSGAVGGTVTINCQASQSIYNELSWYQQKPGQPPKLLIYYASTLASGVSSRFKGSGSGTQFTLTISGVESVDAATYYCQQGYSSSNVDNVFGGGTEVVVK
B8: chimeric anti-5T4 monoclonal antibody 848 (antibody, human IgG1, V domains shown)
VH: B7 VH with Y46W, S53I, D54G, G55S, T56I, N60S, V62A, N99S
VL: B7 VL with A51T, N96D
B9: chimeric anti-5T4 monoclonal antibody 789 (antibody, human IgG1, V domains shown)
VH: QSVEESGGRLVTPGTPLTLTCTASGFSLSSYWMSWVRQAPGKGLEWIGIIAGRGSTYYASWAKGRCTISKTSTTVDLKITSPTTEDTAAYFCARVSSIYYTFNLWGQGTLVTVSS
VL: AQVLTQTPSSVSAAVGGTVTINCQSSQSVYSNNELSWYQQKPGQPPKLLIYYASTLASGVPSRFKGSGSGTQFTLTISGVQSDDAATYYCQGSYYSGSGWYYAFGGGTEVVVK
notes: also called clone 789
B10: chimeric anti-5T4 monoclonal antibody 845 (antibody, human IgG1, V domains shown)
VH: QSLEESGGRLVTPGTPLTLTCTVSGIDLSSYTMNWVRQAPGKGLEWIGVITSHNTYYASWAKGRFTISKTSTTVDLKITSPTTEDTATYFCARSNYGSTIYYMGGMDPWGPGTLVTVSS
VL: DVVMTQTPASVSAAVGGTVTINCQASQSIGSYLAWYQHQPGQPPKLLIYSASTLESGVSSRFEGSRSGTEYTLTISDLDSADAATYYCQCTDYGASYLGAFGGGTEVVVK
B11: chimeric anti-5T4 monoclonal antibody 833 (antibody, IgG1, V domains shown)
VH: QSLEESGGGLVTPGGSLTLTCTGSGIDLSHYVVGWVRQAPGKGLEWIGIIYGSGRTYYANWAKGRFTISKTSTTVDLRIARPTAEDTATYFCARDASVSVYYWGYFDLWGQGTLVTVSS
VL: AYDMTQTPVSVEVAVGGTVTIKCQASQSIGSELAWYQQKPGQPPKLLIYRASTLESGVPSRFSGSGSGTEFTLTISGVESADAATYYCQQGYTYSEIDNAFGGGTEVVVK
notes: also called clone 833
B12: chimeric anti-5T4 monoclonal antibody 841 (antibody, human IgG1, V domains shown)
VH: QSLEESGGRLVTPGTPLTLTCKASGFSLSTYWMSWVRQAPGKGLEWIGIMLSYGNTVYANWAKGRFTISKTSSTTVDLKITSPTTEDTATYFCARGLYGGYPNYGVYDLWGQGTLVTVSS
VL: DVVMTQTPASVEAAVGGTVTIKCQASQSISSYLSWYQQKPGQPPKLLIYAASNLASGVSSRFKGSRSGTEYTLTISDLESADAATYYCQCTDYGSNYVGAFGGGTEVVVK

What follows are binders tested against T1, cynomolgus monkey 5T4 antigen (assay: flow cytometry, CHOZN cells expressing cyno 5T4).
Experimental: (§1) MDA-MB-468 cells, PA-1 cells or CHOZN cells expressing human or cyno 5T4 antigen (100,000 cells/well in a 96-well plate) were washed three times with ice-cold FACS buffer (1×PBS (Lonza) containing 0.2% v/w BSA (Sigma-Aldrich, St. Louis, Mo.)) and 0.02% v/w NaN3 (Sigma-Aldrich), followed by the addition of a concentration range of each primary mAb (50 μl/well) diluted in ice-cold FACS buffer. After an incubation of 30 minutes at 4° C., cells were washed three times with ice-cold FACS buffer and 50 μl/well secondary mAb (AffiniPure F(ab′)2 fragment Goat-anti-human IgG-APC, 1:6,000 dilution, Jackson Immuno Research) was added. After 30 minutes at 4° C., cells were washed twice and resuspended in 150 μl FACS buffer. Fluorescence intensities were determined by flow cytometry (BD FACSVerse, Fanklin Lakes, N.J.) and indicated as the median fluorescence intensity (MFI). Curves were fitted by nonlinear regression using the sigmoidal dose-response equation with variable slope (four parameters) in GraphPad Prism (version 5.01/6.01 for Windows, GraphPad, San Diego, Calif.). EC₅₀ values were calculated as the concentration in μg/ml that gives a response half way between bottom and top of the curve, when using a 4 parameter logistic fit.

fold improvement of binding compared to H8 on cyno 5T4 [fold] | Binder
32 | B1
32 | B2
32 | B3
32 | B4
32 | B5
32 | B6
32 | B7
32 | B8
32 | B9
32 | B10
32 | B11
32 | B12

Each binder was assayed against T2, human 5T4 oncofoetal antigen (assay: flow cytometry, PA-1 cells).
Experimental: (§2) 17 antibodies were selected and affinity to 5T4 antigen was measured using MDA-MB-468 cells, PA-1 cells and Chinese Hamster Ovary (CHO) mammalian cells expressing human or cyno 5T4 antigen (Table 2). In the current application the utilized CHO cells are referred to as CHOZN as these CHO cells expressing human or cyno 5T4 antigen were obtained using the CHOZN® Platform of Sigma-Aldrich. CHOZN cells (SAFC) were transiently transfected, using an Amaxa nucleofector device (Lonza) according to the manufacturer's instructions. Standard, commercially available mammalian expression vectors (SAFC, Life Technologies) were used, which contained the full length human and cyno 5T4 antigen coding sequence (according to accession number NP 006661.1 and Q4R8Y9 respectively), preceded by a human CMV promoter. Transiently transfected CHOZN cells were cultured according the manufacturer's instructions, before being used in antibody binding studies. The 17 selected antibodies are characterised by the amino acid sequences according to the following table (Table 1).
as §1

EC50 [µg/mL] | Binder
0.04 | B1
0.04 | B2
0.05 | B3
0.03 | B4
0.08 | B5
0.07 | B6
0.05 | B7
0.05 | B8
0.03 | B9
0.05 | B10
0.02 | B11
0.02 | B12

Each binder was assayed against T2, human 5T4 oncofoetal antigen (assay: flow cytometry, CHOZN cells expressing hu 5T4).
Experimental: as §2, §1

EC50 [µg/mL] | Binder
0.22 | B1
0.21 | B2
0.19 | B3
0.13 | B4
0.17 | B5
0.24 | B6
0.17 | B7
0.17 | B8
0.27 | B9
0.2 | B10
0.14 | B11
0.24 | B12

Molecular target: T1, cynomolgus monkey 5T4 antigen
Assay: flow cytometry, CHOZN cells expressing cyno 5T4
Remark: another data set of the same source
Experimental: as §2, §1

EC50 [µg/mL] | Binder
0.17 | B1
0.21 | B2
0.13 | B3
0.14 | B4
0.18 | B5
0.22 | B6
0.18 | B7
0.12 | B8
0.15 | B9
0.17 | B10
0.08 | B11
0.14 | B12

These binders were tested against T2, human 5T4 oncofoetal antigen (assay: flow cytometry, MDA-MB-468 cells).
Experimental: as §2, §1

EC50 [µg/mL] | Binder
0.14 | B1
0.08 | B2
0.13 | B3
0.07 | B4
0.09 | B5
0.17 | B6
0.09 | B7
0.09 | B8
0.1 | B9
0.11 | B10
0.04 | B11
0.1 | B12
